Drawing on PMC5397143, this text covers stoichiometry N for one substance.

The assay concerns the target RctB, wild-type full-length (residues 1–658) (Vibrio cholerae). Put plainly: native MS.

In turn, “RctB, wild-type full-length (residues 1–658) (natural protein)” displayed a stoichiometry N of 2.

One may read the stoichiometry N as a count of units in the complex or per binding partner.
